Measured values from US20070072177A1 (CRUCELL HOLLAND B V, published 2007).

T1: glycoprotein of rabies virus strain CVS-11 (rabies virus strain CVS-11, UniProt O92284 20-524)
T1 sequence: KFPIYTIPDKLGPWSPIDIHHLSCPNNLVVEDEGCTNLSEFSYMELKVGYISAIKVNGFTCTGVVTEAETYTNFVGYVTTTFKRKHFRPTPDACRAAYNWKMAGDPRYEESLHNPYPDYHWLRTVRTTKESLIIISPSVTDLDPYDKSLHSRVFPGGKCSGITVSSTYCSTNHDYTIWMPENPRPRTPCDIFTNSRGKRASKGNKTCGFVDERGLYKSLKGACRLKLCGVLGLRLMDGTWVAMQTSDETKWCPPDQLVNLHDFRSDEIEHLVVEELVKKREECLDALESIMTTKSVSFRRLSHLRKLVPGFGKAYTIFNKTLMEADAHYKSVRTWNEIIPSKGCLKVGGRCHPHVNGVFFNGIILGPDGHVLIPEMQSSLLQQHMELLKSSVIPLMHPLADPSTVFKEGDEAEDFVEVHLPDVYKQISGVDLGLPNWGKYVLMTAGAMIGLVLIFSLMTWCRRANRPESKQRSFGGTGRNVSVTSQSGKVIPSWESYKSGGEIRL

B1: SC04-120 (scFv)
scFv: AMAEVQLVQSGGGLVQPGRSLRLSCAASGFTFSTYGMHWVRQAPGKGLEWVATISYDGSIKDYADSEKGRFTISRDNSKNTLYLQMNSLRAEDTAVYYCAKGGKTGEFDYWGQGTLVTVSSGTGGSGGTGSGTGGSTDIQLTQSPSTLSASVGDRVTITCRASQGINSYLAWYQQEPGKAPKLLIYAASTLQSGVPSRFSGSGSGTEFTLTISSLQPEDFATYYCQQLNSYPFTFGPGTKVDIKRAAA
B2: SC04-144 (scFv)
scFv: AMAQVQLQELGGGVVQPGRSLRLSCAASGFTFGSYGMHWVRQAPGKGLEWVATISYDGSIKDYADSEKGRFTISRDNSKNTLYLQMNSLRAEDTAVYYCAKGGKTGEFDYWGQGTLVTVSSGTGGSGGTGSGTGGSTDIQLTQSPSSLSASVGDRVTITCRASQGISSYLAWYQQKPGKGPKLLIYAASTLQSGVPSRFSGSGSGTDFSLTISSLQPEDLATYYCQQYDSYPLTFGGGTKVEIKRAAA
B3: SC04-140 (scFv)
scFv: AMAQMQLVQSGGGVVQPGRSLRLSCAASGFTFSSYGMHWVRQAPGKGLEWVAVILYDGSNKYYADSVKGRFTISRDNSKNALYLQMNSLRAEDTAVYYCAKVTNPGDAFDIWGQGTMVTVSSGTGGSGGTGSGTGGSTDIQMTQSPSSLSASVGDRVTITCRASQGISSALAWYQQKPGKAPKLLIYDASSLESGVPSRFSGSGSGTDFTLTISSLQPEDFATYYCQQFNSYPLTFGGGTKVEIKRAAA
B4: SC04-126 (scFv)
scFv: AMAQVTLKESGPTLVNPTQTLTLTCTFSGFSLSTGGVGVGWFRQPPGKALEWLARIDWDDDKYYSTSLKTRLTISKDTSKIQVVLTMTNMDPVDTATYYCARMGFTGTYFDYWGQGTLVTVSSGTGGSGGTGSGTGGSTQSVLTQPPSVSVAPGKTARITCGGNNIGSKSVHWYQQKPGQAPVLVIYYDSDRPSGIPERFSGSNSGNTATLTISRVEAGDEADYYCQVWDSSSDHPYVFGTGTKLTVLGAAA
B5: SC04-125 (scFv)
scFv: AMAQVQLVESGGGVVQPGRSLRLSCAASGFTFSSYGMHWVRQAPGKGLEWVAVISYDGSDKYYADSVKGRFTISRDNSKNTLYLQMNSLRAEDTAVYYCAKIATAGTGFDYWGQGTLVTVSSGTGGSGGTGSGTGGSTDIQMTQSPSSVSASVGDRVTITCRASQGISSYLAWYQQKPGKAPKLLIYDASSLESGVPSRFSGSGSGTEFTLTISSLQPDDFATYYCQQLNSYPLTFGGGTKVEIKRAAA
B6: SC04-146 (scFv)
scFv: AMAEVQLVQSGGGVVQPGRSLRLSCAASGFTFSSYGMHWVRQAPGKGLEWVATISYDGSIKDYADSEEGRFTISRDNSKNTLYLQMNSLRAEDTAVYYCAKGGKTGEFDYWGQGTLVTVSSGTGGSGGTGSGTGGSTDVVMTQSPATLSVSPGESATLFCRASESVYSNLAWYQHKPGRAPRLLIYGASTRATGIPARFDGTGSGTDFTLTISSLQSEDFAVYYCQQYNDWPITFGQGTRLEIKRAAA
B7: SC04-108 (scFv)
scFv: AMAEVQLVQSGGGLVQPGGSLRLSCAASGFTFSSYGMHWVRQAPGKGLEWVAVILYDGSDKFYADSVKGRFTISRDNSKDTLYLQMNSLRAEDTAVYYCAKFMIVADDAFDIWGQGTMVTVSSGTGGSGGTGSGTGGSTDIQLTQSPSSLSASVGDRVTITCRASQGISSHLVWYQQKPGKAPKSLIYAASSLQSGVPSRFSGSESATDFTLTISSLQPEDFATYYCQQYYSYPITFGQGTRLEIKRAAA

Columns and labels:
[1] = target: purified rabies virus glycoprotein (rabies virus ERA strain) (rabies virus strain ERA, UniProt P03524 20-524); test: phage ELISA on coated purified G protein (ERA), anti-M13-HRP
[2] = target: T1, glycoprotein of rabies virus strain …; test: cell-based or functional assay

| Binder | OD 492 nm [1] [OD 492 nm] | Potency (IU/ml) [2] [IU/ml] |
| --- | --- | --- |
| B1 | 0.571 | 6 |
| B2 | 0.775 | 6 |
| B3 | 0.865 | 1 |
| B4 | 0.232 | 0.1 |
| B5 | 0.735 | 3 |
| B6 | 0.484 | 3 |
| B7 | 0.363 | 1 |
